Data published in article PMC6082141.

Experiments:
[1] = molecular target: microtubules assembled from porcine brain tubulin (porcine) (UniProt P02550); assay: TIRF microscopy, MT-MT sliding assay
[2] = molecular target: microtubules assembled from porcine brain tubulin (porcine) (UniProt P02550); assay: single-molecule TIRF microscopy
[3] = molecular target: microtubules assembled from porcine brain tubulin (porcine) (UniProt P02550); assay: TIRF microscopy, fluorescence intensity on MTs
[4] = molecular target: carboxypeptidase A (CPA)-treated microtubules from porcine brain tubulin (porcine) (UniProt P02550); assay: TIRF microscopy, fluorescence intensity on MTs

Substance	lifetime (τ) of foci of two MT minus-ends brought into contact and held by DDB [1] [s]	dwell time at MT minus-ends, long population (τ2) [2] [s]	percent of incoming molecules that dwell at MT minus-ends with DDB clusters [2] [%]	percent of incoming molecules that dwell at bare (vacant) MT minus-ends [2] [%]	integrated p150 intensity on the MT (minus background, per pixel) [3] [a.u.]	integrated p150 intensity on the MT (minus background, per pixel) [4] [a.u.]
dynein-dynactin-BicD2 co-complex (DDB) (from UniProt Q921C5 1-820; P38650 1-4644; P28023 1-1280)	14.4	54.8	83	77		
TMR-labeled p150-SNAP (from UniProt Q14203-1 1-1278) (natural protein)					2950	1100
